Results as given in the supplement of paper PMC9170038.

Test system: K4 kissing-loop RNA reporter
Assay: apparent KD of K4 kissing-loop reporter; higher = weaker reporter binding
Details: Eterna round: R107
Procedure: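 RNA-MaP round R107: designed RNA switches with theophylline, tryptophan, arginine or FMN aptamers are transcribed on-chip within common flanks. They are titrated with a labelled K4 kissing-loop RNA reporter in RNA-MaP buffer (100 mM Tris pH 7.5, 80 mM KCl, 4 mM MgCl2), without ligand or with the indicated ligand. Median apparent KD per design.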

[1] = input ligand: theophylline 20 uM
[2] = input ligand: tryptophan 2.4 mM
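Note: bound reporter read as fluorescence of individual clusters on recovered sequencing chips by microscopy, with normalized cluster intensities fitted with a binding model.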

Sequence: AGAGAUAUAUGAGGAUAUGAGUUAGUUAAUGAGUUAGUUUUAGUGUUGUUUGGUUAGUGAUGUUAUUUAGAAGGCGUGAGUGAUG [cxfsmullin]
- apparent KD of K4 kissing-loop reporter (input ligand: FMN 200 uM): 0.0897 µM
- apparent KD of K4 kissing-loop reporter (input ligand: arginine 13.2 mM): 0.0664 µM
- apparent KD of K4 kissing-loop reporter (input ligand: none): 0.0677 µM
- apparent KD of K4 kissing-loop reporter [1]: 0.0969 µM
- apparent KD of K4 kissing-loop reporter [2]: 0.0608 µM

Sequence: AGAGUUAUGAGAGGAUAUGCGGCUAGUACUCAAAGAGUACUAGCAGCAGAGUGAUGUUCUGUGAAAGCAGAAGGUUCAUAACUCA [#06 K4 FMN B Same State]
- apparent KD of K4 kissing-loop reporter (input ligand: FMN 200 uM): 0.124 µM
- apparent KD of K4 kissing-loop reporter (input ligand: arginine 13.2 mM): 0.668 µM
- apparent KD of K4 kissing-loop reporter (input ligand: none): 0.627 µM
- apparent KD of K4 kissing-loop reporter [1]: 0.563 µM
- apparent KD of K4 kissing-loop reporter [2]: 0.641 µM

Sequence: AGAUUCGACACGGCCGCCACUCGUGGUGGAUUACCUAGUGUCGAAGUUGAGUGAUGUUCAAGUACGAGGACCGGGUGUUGAGUCU [KL-XTryp-B8 #analogue]
- apparent KD of K4 kissing-loop reporter (input ligand: FMN 200 uM): 0.42 µM
- apparent KD of K4 kissing-loop reporter (input ligand: arginine 13.2 mM): 0.31 µM
- apparent KD of K4 kissing-loop reporter (input ligand: none): 0.37 µM
- apparent KD of K4 kissing-loop reporter [1]: 0.403 µM
- apparent KD of K4 kissing-loop reporter [2]: 0.5 µM

Sequence: AGAUUCGACACGGCCGCCACUUCCAGUGGCUGGUGUCAUGGUGCGCGUGAGUGAUGUUUAUGUGGAAGGACCGGGUGUUGAGUCU [KL-XTryp-B1 #analogue]
- apparent KD of K4 kissing-loop reporter (input ligand: FMN 200 uM): 0.938 µM
- apparent KD of K4 kissing-loop reporter (input ligand: arginine 13.2 mM): 0.554 µM
- apparent KD of K4 kissing-loop reporter (input ligand: none): 0.917 µM
- apparent KD of K4 kissing-loop reporter [1]: 0.606 µM
- apparent KD of K4 kissing-loop reporter [2]: 1.19 µM

Sequence: AGCAAUAUCACGGCCGCCACUGAAUAUUGUUUUUAUAUUUAGAAAUCUUGCCAGUGAUGUUGGUUCAGGACCGGGUGAGUUAAUA [JR_SSTryptoB_Sub005]
- apparent KD of K4 kissing-loop reporter (input ligand: FMN 200 uM): 0.435 µM
- apparent KD of K4 kissing-loop reporter (input ligand: arginine 13.2 mM): 0.43 µM
- apparent KD of K4 kissing-loop reporter (input ligand: none): 0.466 µM
- apparent KD of K4 kissing-loop reporter [1]: 0.45 µM
- apparent KD of K4 kissing-loop reporter [2]: 0.401 µM

Sequence: AGCAAUAUCACGGCCGCCACUGAAUAUUGUUUUUAUAUUUAUAAAUCUUGCCAGUGAUGUUGGUUCAGGACCGGGUGAGUUAAUA [JR_SSTryptoB_Sub004]
- apparent KD of K4 kissing-loop reporter (input ligand: FMN 200 uM): 0.573 µM
- apparent KD of K4 kissing-loop reporter (input ligand: arginine 13.2 mM): 0.603 µM
- apparent KD of K4 kissing-loop reporter (input ligand: none): 0.783 µM
- apparent KD of K4 kissing-loop reporter [1]: 0.665 µM
- apparent KD of K4 kissing-loop reporter [2]: 0.412 µM

Sequence: AGCCGAAAGGCGAGUGCUGUCACUCCGGAAGGAGCGGCGAAAACGCCAGGUAGGUCGCCGGAGUGAUGUUCCGGUGCAGCACUCA [Omei KL Arginine A Exc B v2]
- apparent KD of K4 kissing-loop reporter (input ligand: FMN 200 uM): 0.603 µM
- apparent KD of K4 kissing-loop reporter (input ligand: arginine 13.2 mM): 0.41 µM
- apparent KD of K4 kissing-loop reporter (input ligand: none): 0.932 µM
- apparent KD of K4 kissing-loop reporter [1]: 0.521 µM
- apparent KD of K4 kissing-loop reporter [2]: 0.492 µM

Sequence: AGCGGCCAGUCGGCCGCCACUCCGGGCAGUGAUGUUGCGAAGUGUCUACUAGAGUGAUGUUCUAAGAGGACCGGGACUGACGUAU [Exclusion Tryptophan B Gf 11]
- apparent KD of K4 kissing-loop reporter (input ligand: FMN 200 uM): 0.434 µM
- apparent KD of K4 kissing-loop reporter (input ligand: arginine 13.2 mM): 0.394 µM
- apparent KD of K4 kissing-loop reporter (input ligand: none): 0.534 µM
- apparent KD of K4 kissing-loop reporter [1]: 0.476 µM
- apparent KD of K4 kissing-loop reporter [2]: 0.332 µM

Sequence: AGCGUCUGAAGAGGAUAUGACCAGUGAUGUUGGUUACUACCUCAAAUUAGUGUCUCGUCAAAAUCGUCAGAAGGCUUCGACGAGC [#09 K4 FMN B Exclusion]
- apparent KD of K4 kissing-loop reporter (input ligand: FMN 200 uM): 0.122 µM
- apparent KD of K4 kissing-loop reporter (input ligand: arginine 13.2 mM): 0.0962 µM
- apparent KD of K4 kissing-loop reporter (input ligand: none): 0.0957 µM
- apparent KD of K4 kissing-loop reporter [1]: 0.0928 µM
- apparent KD of K4 kissing-loop reporter [2]: 0.0912 µM

Sequence: AGGAGCGUGCGAUGCAAAUCGCACGCUCCUCGAGGACCGGUACGGCCGCCACUCGCUCGCGCCGAGUGAUGUUCGGCCGGCGAAC [#2 Same State - Tryptophan A Attempt #10 (HarryS)]
- apparent KD of K4 kissing-loop reporter (input ligand: FMN 200 uM): 0.266 µM
- apparent KD of K4 kissing-loop reporter (input ligand: arginine 13.2 mM): 0.236 µM
- apparent KD of K4 kissing-loop reporter (input ligand: none): 0.265 µM
- apparent KD of K4 kissing-loop reporter [1]: 0.289 µM
- apparent KD of K4 kissing-loop reporter [2]: 0.453 µM

Sequence: AGGCACGAGCAAGGAUAUUGAGUAGAGUGAUGUUCUGCCUGGGUUGGCUCGAAAGAGCCUUCUCAGCGAGAAGGUGCUCGUGCCU [#2 Same State - FMN A Attempt #22 (HarryS)]
- apparent KD of K4 kissing-loop reporter (input ligand: FMN 200 uM): 0.29 µM
- apparent KD of K4 kissing-loop reporter (input ligand: arginine 13.2 mM): 0.603 µM
- apparent KD of K4 kissing-loop reporter (input ligand: none): 0.616 µM
- apparent KD of K4 kissing-loop reporter [1]: 0.367 µM
- apparent KD of K4 kissing-loop reporter [2]: 0.719 µM

Sequence: AGGGCACUGGCGGCCGCCACUUUUCGUGCGAACCAAAGCUAGUGAUGUUGGCUCCCUAGUUGCAAAAGGACCGGGCCGUUCAUCU [theeternabot_sameState_KL_Trp_B_37]
- apparent KD of K4 kissing-loop reporter (input ligand: FMN 200 uM): 0.315 µM
- apparent KD of K4 kissing-loop reporter (input ligand: arginine 13.2 mM): 0.195 µM
- apparent KD of K4 kissing-loop reporter (input ligand: none): 0.302 µM
- apparent KD of K4 kissing-loop reporter [1]: 0.296 µM
- apparent KD of K4 kissing-loop reporter [2]: 0.211 µM

Sequence: AGGUUUUGAUUAGGAUAUGCACUGACGACGAGAAUAUAGUGAUGUUAUAUACUACGAAUUAGUAGAGUAGAAGGGAUUGAGGUUU [SSFMNB.Y]
- apparent KD of K4 kissing-loop reporter (input ligand: FMN 200 uM): 0.344 µM
- apparent KD of K4 kissing-loop reporter (input ligand: arginine 13.2 mM): 0.265 µM
- apparent KD of K4 kissing-loop reporter (input ligand: none): 0.33 µM
- apparent KD of K4 kissing-loop reporter [1]: 0.322 µM
- apparent KD of K4 kissing-loop reporter [2]: 0.245 µM

Sequence: AGGUUUUGAUUAGGAUAUGCACUGACGAUGAGAAUAUAGUGAUGUUAUAUACUACGAAUUAGUAGAGUAGAAGGGAUUGAGGUUU [SSFMNB.Z]
- apparent KD of K4 kissing-loop reporter (input ligand: FMN 200 uM): 0.568 µM
- apparent KD of K4 kissing-loop reporter (input ligand: arginine 13.2 mM): 0.338 µM
- apparent KD of K4 kissing-loop reporter (input ligand: none): 0.414 µM
- apparent KD of K4 kissing-loop reporter [1]: 0.459 µM
- apparent KD of K4 kissing-loop reporter [2]: 0.335 µM

Sequence: AGUAAUAUCACGGCCGCCACUGAUUAUUGUUUUUAUAGUUAUAAAUCUUGCCAGUGAUGUUGGUUCAGGACCGGGUGAGUUAAUA [JR_SSTryptoB_Sub001]
- apparent KD of K4 kissing-loop reporter (input ligand: FMN 200 uM): 0.429 µM
- apparent KD of K4 kissing-loop reporter (input ligand: arginine 13.2 mM): 0.469 µM
- apparent KD of K4 kissing-loop reporter (input ligand: none): 0.584 µM
- apparent KD of K4 kissing-loop reporter [1]: 0.727 µM
- apparent KD of K4 kissing-loop reporter [2]: 0.299 µM

Sequence: AGUCCACUCUAAAGAGUGGACCUAAGGGAUACCAGUGAUGUUGGUCACCCUUGGCAGCCCGCUGUCAUCGAUAAAGAUGGCAGGA
- apparent KD of K4 kissing-loop reporter (input ligand: FMN 200 uM): 0.133 µM
- apparent KD of K4 kissing-loop reporter (input ligand: arginine 13.2 mM): 0.113 µM
- apparent KD of K4 kissing-loop reporter (input ligand: none): 0.129 µM
- apparent KD of K4 kissing-loop reporter [1]: 0.127 µM
- apparent KD of K4 kissing-loop reporter [2]: 0.125 µM

Sequence: AGUGAUAUAUGAGGAUAUGGGAUUGUUAAUGAGUUAGUUUUAGUGUUGUUUGGUUAGUGAUGUUAUUUAGAAGGCGUGAGUGAUG [kuktrmullin]
- apparent KD of K4 kissing-loop reporter (input ligand: FMN 200 uM): 0.0936 µM
- apparent KD of K4 kissing-loop reporter (input ligand: arginine 13.2 mM): 0.0874 µM
- apparent KD of K4 kissing-loop reporter (input ligand: none): 0.096 µM
- apparent KD of K4 kissing-loop reporter [1]: 0.116 µM
- apparent KD of K4 kissing-loop reporter [2]: 0.0704 µM

Sequence: AGUGUUGUAUGGCGGUUUGUCACUUAGGAUCAGGAUAUAUAAACAAAUAGAAGGGAUGGCGGAGUGAUGUUCCGCCGGCCGCCAU [FMN A Exl V7]
- apparent KD of K4 kissing-loop reporter (input ligand: FMN 200 uM): 0.132 µM
- apparent KD of K4 kissing-loop reporter (input ligand: arginine 13.2 mM): 0.128 µM
- apparent KD of K4 kissing-loop reporter (input ligand: none): 0.121 µM
- apparent KD of K4 kissing-loop reporter [1]: 0.126 µM
- apparent KD of K4 kissing-loop reporter [2]: 0.121 µM

Sequence: AGUGUUUGGUUAGAUACCAGCCGUCUGUGGAUAAUCCUCAGACCGCCAGUGAUGUUGGCAGGCCCUUGGCAGCUAACAGGACAGA [Ersoed]
- apparent KD of K4 kissing-loop reporter (input ligand: FMN 200 uM): 0.199 µM
- apparent KD of K4 kissing-loop reporter (input ligand: arginine 13.2 mM): 0.213 µM
- apparent KD of K4 kissing-loop reporter (input ligand: none): 0.275 µM
- apparent KD of K4 kissing-loop reporter [1]: 0.233 µM
- apparent KD of K4 kissing-loop reporter [2]: 0.224 µM

Sequence: AGUUAUGUAUCAGGAUAUUAGUGAUGUUUGUUUAUGUUAGUGAUGUUGAUAUUUGUUUUAUGUAUUUAAGAAGGGAUUGAGAUGU [ccgcmullin]
- apparent KD of K4 kissing-loop reporter (input ligand: FMN 200 uM): 0.0571 µM
- apparent KD of K4 kissing-loop reporter (input ligand: arginine 13.2 mM): 0.0207 µM
- apparent KD of K4 kissing-loop reporter (input ligand: none): 0.048 µM
- apparent KD of K4 kissing-loop reporter [1]: 0.0306 µM
- apparent KD of K4 kissing-loop reporter [2]: 0.0466 µM

Sequence: AUAAUAUGAGUGAUGUUCAUGAAACCUGAAGGAGCGGACGAAAGUCCAGGUAGGUCGCAGGACUCCUUCAACAUGGGAGAGGGAG [KL-SSArg-A8 #analogue]
- apparent KD of K4 kissing-loop reporter (input ligand: FMN 200 uM): 0.153 µM
- apparent KD of K4 kissing-loop reporter (input ligand: arginine 13.2 mM): 0.18 µM
- apparent KD of K4 kissing-loop reporter (input ligand: none): 0.166 µM
- apparent KD of K4 kissing-loop reporter [1]: 0.194 µM
- apparent KD of K4 kissing-loop reporter [2]: 0.15 µM

Sequence: AUAGCUGAUAGCAGUGAUGUUGCUUCAGAUACCAGACGAGAUCAUGUCCCUUGGCAGCUGACAUGGCAAGUGCUAGGUUAGAUGA [#11 K4 Theophylline A Exclusion]
- apparent KD of K4 kissing-loop reporter (input ligand: FMN 200 uM): 0.14 µM
- apparent KD of K4 kissing-loop reporter (input ligand: arginine 13.2 mM): 0.114 µM
- apparent KD of K4 kissing-loop reporter (input ligand: none): 0.125 µM
- apparent KD of K4 kissing-loop reporter [1]: 0.12 µM
- apparent KD of K4 kissing-loop reporter [2]: 0.13 µM
